# Reference: US20170129954A1 (PROTHENA BIOSCIENCES, published 2017)
# Where a chain is given by its changes, count along the chain named.
# B1: mouse anti-human MCAM monoclonal antibody clone 1749.1.3 (antibody, V domains shown)
# VH: DVKLVESGGDLVKPGGSLKLSCAASGFTFSSYIMSWVRQTPEKRLEWVATISSGGSSTYYPDSVKGRFTISRDNAKNTLYLQMSSLKSEDTAMYYCTRDDDYDVKVFAYWGQGTLVTVSA
# VL: DIVMSQSPSSLAVSAGEKVTMNCKSSRSLLNSRIRKNYLAWYQQKPGQSPKLLIYWASTRESGVPDRFTGSGSGTDFTLTISSVQAEDLAVYYCKQSYNLLTFGAGTKLELK
# notes: Mouse hybridoma monoclonal antibody; also called m1749
# Key:
# [1] = molecular target: T1, MCAM Y318A mutant, purified protein from a stable cell line (human, UniProt P43121 24-559, limits assumed); experiment: ForteBio BLI with purified protein
# T1 chain: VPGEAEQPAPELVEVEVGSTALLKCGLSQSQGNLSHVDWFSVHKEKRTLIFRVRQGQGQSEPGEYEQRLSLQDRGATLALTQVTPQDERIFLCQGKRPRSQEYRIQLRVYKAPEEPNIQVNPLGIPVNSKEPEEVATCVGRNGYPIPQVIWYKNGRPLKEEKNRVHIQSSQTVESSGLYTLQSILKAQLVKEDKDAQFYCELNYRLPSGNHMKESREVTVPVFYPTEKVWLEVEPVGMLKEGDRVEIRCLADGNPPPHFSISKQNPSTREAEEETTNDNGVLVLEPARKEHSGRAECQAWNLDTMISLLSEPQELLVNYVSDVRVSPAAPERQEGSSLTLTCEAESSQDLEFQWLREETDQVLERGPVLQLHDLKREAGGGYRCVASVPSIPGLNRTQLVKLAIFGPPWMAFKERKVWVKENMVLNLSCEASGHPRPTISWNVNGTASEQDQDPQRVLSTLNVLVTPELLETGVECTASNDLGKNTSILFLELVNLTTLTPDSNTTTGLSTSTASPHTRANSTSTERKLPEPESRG
# Method: To further confirm the data, stable cell lines expressing I141A, P145V, D216A and Y318A respectively were generated. Fortebio assays were performed with the purified proteins as described above. The control ABX-MA1 antibody bound to wild type MCAM and the MCAM mutants.
# [2] = molecular target: T2, human MCAM Y318A mutant (shotgun mutagenesis library, on BHK cells) (human, UniProt P43121 24-646); experiment: shotgun mutagenesis library, immunofluorescence on BHK cells, triplicate, background-subtracted and normalized to WT
# T2 chain: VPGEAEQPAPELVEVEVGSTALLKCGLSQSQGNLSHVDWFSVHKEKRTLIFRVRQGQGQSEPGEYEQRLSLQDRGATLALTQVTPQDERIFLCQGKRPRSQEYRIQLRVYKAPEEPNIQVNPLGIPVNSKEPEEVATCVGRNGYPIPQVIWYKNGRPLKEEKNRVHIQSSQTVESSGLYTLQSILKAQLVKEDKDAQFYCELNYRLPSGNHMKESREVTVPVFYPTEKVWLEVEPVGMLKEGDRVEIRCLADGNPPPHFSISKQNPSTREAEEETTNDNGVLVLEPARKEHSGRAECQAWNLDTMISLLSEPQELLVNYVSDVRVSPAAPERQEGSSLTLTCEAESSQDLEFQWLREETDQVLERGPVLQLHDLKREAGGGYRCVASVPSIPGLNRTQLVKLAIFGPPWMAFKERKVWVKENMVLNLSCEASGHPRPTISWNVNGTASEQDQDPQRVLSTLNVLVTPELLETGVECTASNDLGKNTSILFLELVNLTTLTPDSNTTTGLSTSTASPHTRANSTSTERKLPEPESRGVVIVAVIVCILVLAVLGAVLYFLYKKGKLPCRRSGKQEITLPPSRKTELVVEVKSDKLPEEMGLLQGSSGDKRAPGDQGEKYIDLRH
# Method: The mutation library was assayed for surface expression (mouse sera binding) and monoclonal antibody binding, in triplicate. Each raw data point was background-subtracted and normalized to the wild type MCAM reactivity values. The mean monoclonal antibody binding value for each clone is plotted as a function of its mean surface expression value (FIG. 1, gray diamonds). Thresholds of <30% monoclonal antibody reactivity and >50% mouse sera binding were applied to identify clones (FIG. 1, black diamonds) that were negative for monoclonal antibody binding but positive for surface expression.
# Residues involved in antibody binding were identified as those that were negative for monoclonal antibody binding (<30% WT) but positive for surface expression (>50% WT) (Table 4). The mean reactivity (and standard deviation) were determined for each critical residue.
# [3] = molecular target: T3, human MCAM domain 2 (amino acids 139-242) hFc (human, UniProt P43121 139-242); experiment: ForteBio BLI, MCAMhFc domains on anti-human IgG Fc biosensors
# T3 construct: One of the various MCAMhFc domains captured on anti-human IgG Fc biosensors; also called MCAMhFc domain; not shown: human IgG Fc (hFc)
# T3 sequence: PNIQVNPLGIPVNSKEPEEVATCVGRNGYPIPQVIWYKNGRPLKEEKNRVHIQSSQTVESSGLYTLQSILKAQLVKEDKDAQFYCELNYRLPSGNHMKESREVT
# Source text: The following protocol was used: ForteBio anti-human IgG Fc biosensors were used to immobilize various MCAMhFc domains including full length MCAMhFc protein on to biosensor surface. […] After loading these samples into a black 96 well plate, the Octet Red was programmed as follows: 60 seconds for baseline #1; 180 seconds for loading various domains; 60 seconds for baseline #2; 180 seconds for association of antibody to domain; and 240 seconds for dissociation of antibody from domain.
# 1. MCAMhFc final concentration @ 5 ug/ml [0329] […] 3. ForteBio anti-human IgG Fc Capture (AHC) biosensors for kinetics experiments, cat #18-5060 [0331] 4. Block 96 well plate from Greiner Bio-one, cat #655209 [0332] 5. ForteBio Octet Red machine [0333] 6. Fresh tissue culture medium, DMEM with 20% FCS, was used as buffer for dilution The results from these analyses are as follows.
# [4] = molecular target: T4, human MCAM (antigen of the BLI kinetics in Example 7) (human, UniProt P43121 24-559, limits assumed); experiment: BLI, ForteBio Octet QK, apparent kd
# T4 chain: T1 chain with A295Y
# Source text: Apparent ka, apparent kd and apparent KD are binding kinetic parameters obtained using ForteBio assay formats.
binder,measurement,setting,value
B1,binding result,[1],no binding
same,"mean reactivity (% of wild type MCAM), standard deviation in brackets",[2],7.1 % of WT
same,binding result,[3],no binding (tested: 5 ug/ml)
same,koff,[4],0.000402 s⁻¹
